From paper PMC7966797, “A cold shock protein promotes high-temperature microbial growth through binding to diverse RNA species” come the findings set out here.

In data set [1] the target is T1, CspL (Bacillus coagulans 2-6, UniProt A0A0C5C4D7 1-67). Put plainly: BLI; BLI, streptavidin sensor with 5'-biotin oligo; 20 mM PBS pH 7.4, 100 mM NaCl, 0.1% BSA, 0.02% Tween 20; CspL 20 ug/ml; temperature not in the material. The settings on record: protein: recombinant, tags: His, label: 5'-biotin. In general terms: In BLI a coated tip is dipped into the sample, and binding shifts an interference pattern.

For data set [2], the target named is T1, CspL. Put plainly: BLI; 2100, 210 nM CspL; binding lost at 21 nM; BLI, streptavidin sensor with 5'-biotin oligo; 20 mM PBS pH 7.4, 100 mM NaCl, 0.1% BSA, 0.02% Tween 20; CspL 20 ug/ml; temperature not in the material. The settings on record: protein: recombinant; tags: His; label: 5'-biotin.

B1: ssDNA random (ssDNA)
DNA: CCGCAGATCCAGACGAGAGC
In the case of B1, the binding result with CspL [1] is “binds”.

B2: 18 nt ssDNA (ssDNA 5) (ssDNA)
DNA: GAGACCGGAATTCGAGCT
Turning to B2, the binding result with CspL [2] is “binds”.

B3: dsDNA random (dsDNA)
DNA 1: CCGCAGATCCAGACGAGAGC
DNA 2: GCTCTCGTCTGGATCTGCGG
For the molecule B3, the binding result with CspL [1] (blunt) is “no binding”.

B4: ssDNA gaaC (ssDNA)
DNA: CCGCAGAGAACGACGAGAGC
With B4, the binding result with CspL [1] is reported as “binds”.

B5: dsDNA gaaC (dsDNA)
DNA 1: CCGCAGAGAACGACGAGAGC
DNA 2: GCTCTCGTCGTTCTCTGCGG
For B5, in the data set with CspL [1] (blunt), the binding result is given as “no binding”.
